Substrate: CC(=O)SCCNC(=O)CCNC(=O)[C@H](O)C(C)(C)COP(=O)(O)OP(=O)(O)OC[C@H]1O[C@@H](n2cnc3c(N)ncnc32)[C@H](O)[C@@H]1OP(=O)(O)O
Assay: radiochemical TLC acetyltransferase assay, one-site Hill fit
Type: biochemical, Escherichia coli
Conditions: 500 μM glucosamine-1-phosphate, 20 mM MgCl2, 37 °C, labelled compound

B1: GlmU (Escherichia coli K-12) (protein)
chain: MLNNAMSVVILAAGKGTRMYSDLPKVLHTLAGKAMVQHVIDAANELGAAHVHLVYGHGGDLLKQALKDDNLNWVLQAEQLGTGHAMQQAAPFFADDEDILMLYGDVPLISVETLQRLRDAKPQGGIGLLTVKLDDPTGYGRITRENGKVTGIVEHKDATDEQRQIQEINTGILIANGADMKRWLAKLTNNNAQGEYYITDIIALAYQEGREIVAVHPQRLSEVEGVNNRLQLSRLERVYQSEQAEKLLLAGVMLRDPARFDLRGTLTHGRDVEIDTNVIIEGNVTLGHRVKIGTGCVIKNSVIGDDCEISPYTVVEDANLAAACTIGPFARLRPGAELLEGAHVGNFVEMKKARLGKGSKAGHLTYLGDAEIGDNVNIGAGTITCNYDGANKFKTIIGDDVFVGSDTQLVAPVTVGKGATIAAGTTVTRNVGENALAISRVPQTQKEGWRRPVKKK
notes: full-length in pET28a, His-tag kept; expressed in E. coli BL21(DE3)
  Km: 400 µM
